The values below come from PMC9299196, “Profiling the specificity of clonally expanded plasma cells during chronic viral infection by single‐cell analysis” (European Journal of Immunology, 2021).

Read-outs that look alike come from different tables or passages of the source.

A word on the Kd: it is the constant that tells how readily two partners part at equilibrium.

Experiment [1] deals with T1, LCMV clone 13 nucleocapsid protein (NP), purified recombinant (LCMV clone 13 (stand-in: strain …, UniProt P09992, strain)).
The target of experiment [2] is T1, LCMV clone 13 nucleocapsid protein …. The experiment in a line: ELISA. Conditions: one partner purified. On the technique in general: ELISA stands for enzyme-linked immunosorbent assay.
In experiment [3] the target is T2, LCMV clone 13 nucleocapsid protein (NP), purified recombinant (Lymphocytic choriomeningitis virus …, UniProt P09992 1-558).
T2 chain: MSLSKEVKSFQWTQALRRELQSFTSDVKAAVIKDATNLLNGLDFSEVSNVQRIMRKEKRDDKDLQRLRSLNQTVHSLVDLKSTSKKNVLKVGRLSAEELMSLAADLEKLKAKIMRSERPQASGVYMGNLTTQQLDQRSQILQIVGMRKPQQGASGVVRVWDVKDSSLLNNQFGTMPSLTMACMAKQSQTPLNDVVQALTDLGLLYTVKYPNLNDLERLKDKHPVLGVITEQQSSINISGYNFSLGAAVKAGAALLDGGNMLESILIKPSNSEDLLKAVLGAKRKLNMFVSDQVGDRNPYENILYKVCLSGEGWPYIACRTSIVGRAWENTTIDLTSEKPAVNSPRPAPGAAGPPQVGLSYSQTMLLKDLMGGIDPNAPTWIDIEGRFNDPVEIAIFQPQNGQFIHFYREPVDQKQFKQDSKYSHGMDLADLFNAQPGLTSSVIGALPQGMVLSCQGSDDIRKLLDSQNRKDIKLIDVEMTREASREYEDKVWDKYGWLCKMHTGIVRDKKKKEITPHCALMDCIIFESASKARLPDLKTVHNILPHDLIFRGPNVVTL
The experiment in a line: BLI. (In BLI a coated tip is dipped into the sample, and binding shifts an interference pattern.)

B1: Rank2.4 (antibody, V domains shown)
VH: EVQLQQSGPELVKPGASVKMSCKASGYTFTDYNMHWVKQSHGKSLEWFGYIDPNNGGIRYNQLFKGKATLTVNKTSRIAYMELRSLTSEDSAVYYCAREGGYWYFDVWGTGTTVIVSS
VL: DIVMTQSHKFKSTPVGDRVSITCKASQDVSTAVAWYQQKPGQSPKLLIYWASTRHTGVPDRFTGSGSGTDYTLTISSVQAEDLALYYCQQHYSTPFTFGSGTKLEIK
As for B1, the binding result in experiment [1] is “binds”.

B2: Rank2.5 (antibody, V domains shown)
VH: EVQLQQSGPELVKPGASVKMSCKASGYTFTDYNMHWVKQSHGKSLEWIGYINPNNGGSRYNQKFKGKATLTGNKSSSTAYMELRSLTSEDSAVYYCAREGGYWYFDVWGTGTTVTVSS
VL: DIVMTQSHKFMSTSVGDRVSITCKASQDVSTAIAWYQQKPGQSPKLLIYWASTRHTGVPDRFTGSGSGTDYTLTISSVQAEDLALYYCQQHYSTPFTFGSGTKLEIK
Turning to B2, the binding result in experiment [1] was “binds”.

B3: third additionally expressed variant of the second most expanded IgG clone (single-reactive) (antibody, V domains shown)
VH: EVQLQQSGPELVKPGASVKMSCKASGYTFIDYNMHWVKQSHGKSLEWIGYINPNNGGTNYNQKFKGKATLTVNKSSSTAYMELRSLTSEDSAVYYCAREGGYWYFDVWGTGTTVTVSS
VL: DIVMTQSHKFMSTSVGDRVSITCKASQDVSTAVAWYQQKPGQSPKLLIYWASTRHTGVPDRFTGSGSGTDYTLTISSVQAEDLALYYCQQHYSTPFTFGSGTELEIK
notes: also called one of the three tested variants; single-reactive antibody
Turning to B3, the binding result in experiment [2] was “binds”. In addition, the Kd in experiment [3] was 370 nM.

B4: NP-specific, second most expanded IgG clone, most expanded antibody variant (antibody, V domains shown)
VH: EVQLQQSGPELVKPGASVKMSCKASGYTFTDYNMHWVKQSHGKSLEWIGYINPNNGGTSYNQKFKGKATLTVNKSSSTAYMELRSLTSEDSAVYYCAREGGYWYFDVWGTGTTVTVSS
VL: DIVMTQSHKFMSTSVGDRVSITCKASQDVSTAVAWYQQKPGQSPKLLIYWASTRHTGVPDRFTGSGSGTDYTLTISSVQAEDLALYYCQQHYSTPFTFGSGTKLEIK
notes: also called second most expanded clone; previously tested variant
Consider B4, for which the binding result in experiment [2] is listed as “binds”. For the same molecule, the dissociation constant (Kd) in experiment [3] came out at 470 nM.

B5: NP-specific IgG clone other than the second most expanded clone (antibody, V domains shown)
VH: QVQLQQSDAELVKPGASVKISCKVSGYTFTDHTIHWMKQRPEQGLEWIGYIYPRDGSTKYNEKFKGKATLTADKSSSTAYMQLNSLTSEDSAVYFCARGGYYGFYYFDYWGQGTTLTVSS
VL: DIVLTQSPASLAVSLGQRATISCRASESVEYYGTSLMQWYQQKPGQPPKLLIYAASNVESGVPARFSGSGSGTDFSLNIHPVEEDDIAMYFCQQSWKVPYTFGGGTKLEIK
notes: also called one of the two NP-specific clones
On to B5, for which the binding result in experiment [2] is “binds”.
